Reference: paper PMC6937562

How the values were obtained:
[1] = target: PspCN-anchored FH (on the HJEM6 SPR chip) (human | Streptococcus pneumoniae) (UniProt P08603); assay: SPR; homemade HJEM6 chip, FH (54 RU) captured by clicked sumo-Cys-PspCN-azide (18 RU); C3b flowed (1 μM to 3.9 nM); 1:1 steady-state model
C3b (human) [2] = target: C3b (human) (UniProt P01024); assay: SPR; homemade HJEM7 chip, 143 RU C3b amine-coupled and 174 RU 3′-sialyllactose clicked on; FH (2 μM to 3.9 nM) or FH 19–20 (10 μM to 3.9 nM) flowed; Biacore T200, 25 °C, HBS-P pH 7.4; 1:1 steady-state model
C3b (human) [3] = target: C3b (human) (UniProt P01024); assay: SPR; homemade HJEM7 chip (50% OH, 25% COOH, 25% propargyl), 144 RU C3b amine-coupled; FH (2 μM to 3.9 nM) or FH 19–20 (10 μM to 3.9 nM) flowed; Biacore T200, 25 °C, HBS-P pH 7.4; 1:1 steady-state model
C3b (human) [4] = target: C3b (human) (UniProt P01024); assay: AFM force-distance measurements; Cys-PspCN thiol-coupled to the SAM on the AFM probe tip, alone or with FH anchored to it; partner amine-coupled to the SAM on a gold wafer; PBS, laboratory at 22 °C; single (type 3) detachment events
C3b (human) [5] = target: C3b (human) (UniProt P01024); assay: SPR; C1 chip with immobilised C3b; cycles of a mixture of FB and FD, then C3, injected at 10 μl/min; Biacore T200, 25 °C, HBS-P pH 7.4 with 1 mM MgCl2

C3b (from UniProt P01024 23-667; P01024 749-1663) (natural protein)
Kd [1]: 70 nM

FH 19–20 (domain or fragment)
Kd (C3b (human) [2]): 2600 nM | Kd (C3b (human) [3]): 350 nM

PspCN-anchored FH (on the AFM probe tip) (from UniProt P08603 19-1231) (complex)
detachment force of single events (C3b (human) [4]): 0.1 to 0.26 nN | mean detachment force (C3b (human) [4]): 0.17 nN

factor B (natural protein)
percent of C3b molecules binding FB (C3b (human) [5]): < 80%
